Test results reported in US20260266848A1, “COMPOSITIONS AND METHODS FOR DIAGNOSING AND TREATING DYSTONIA” (Duke University, priority 2023, published 2026).
Where two headings read alike, the source gives them in different places.

Columns and labels:
WT MEF EVs = test: Quantitative LC-MS/MS proteomics of EVs from ISRIB-treated WT MEF cultures; type: cell-based, mouse; settings: EV protein abundance, ISRIB-treated WT vs WT
DYT-TOR1A MEF EVs = test: Quantitative LC-MS/MS proteomics of EVs from drug-treated DYT-TOR1A MEF cultures (ritonavir, salubrinal); type: cell-based, mouse; design: key to RTV Corrective Direction / RTV Corrective Direction, Grwd1 / RTV Corrective Direction, Srrm2 / RTV Corrective Direction, Rbm17 / RTV Corrective Direction, Dcaf8 / RTV Corrective Direction, Edil3 / RTV Corrective Direction, Timp3 / RTV Corrective Direction, Heatr3 / RTV Corrective Direction, Brd4 / RTV Corrective Direction, P3h4 / RTV Corrective Direction, Pacsin3 / RTV Corrective Direction, Naa50 / RTV Corrective Direction, Lpar6 / RTV Corrective Direction, Ndrg1 / RTV Corrective Direction, Kntc1 / RTV Corrective Direction, Cdk11b / RTV Corrective Direction, Sumo1 / RTV Corrective Direction, Lsm4 / RTV Corrective Direction, Hmga2 / RTV Corrective Direction, Cstf1 / RTV Corrective Direction, Tes / RTV Corrective Direction, Sbno1 / RTV Corrective Direction, Unc119b / RTV Corrective Direction, Cfdp1 / RTV Corrective Direction, Sec61b: YES = protein abundance effect opposite to DYT/WT; settings: for DYT + RTV/DYT Cohen's d: ritonavir (RTV)-treated DYT vs DYT
[1] = EV protein abundance, DYT + RTV (ritonavir) vs DYT, direction compared with DYT/WT

B1: Pld3 (protein, UniProt O35405 1-488, looked up)
5'-3' exonuclease PLD3: MKPKLMYQELKVPVEEPAGELPLNEIEAWKAAEKKARWVLLVLILAVVGFGALMTQLFLWEYGDLHLFGPNQRPAPCYDPCEAVLVESIPEGLEFPNATTSNPSTSQAWLGLLAGAHSSLDIASFYWTLTNNDTHTQEPSAQQGEEVLQQLQALAPRGVKVRIAVSKPNGPLADLQSLLQSGAQVRMVDMQKLTHGVLHTKFWVVDQTHFYLGSANMDWRSLTQVKELGVVMYNCSCLARDLTKIFEAYWFLGQAGSSIPSTWPRSFDTRYNQETPMEICLNGTPALAYLASAPPPLCPSGRTPDLKALLNVVDSARSFIYIAVMNYLPTMEFSHPRRFWPAIDDGLRRAAYERGVKVRLLISCWGHSDPSMRSFLLSLAALHDNHTHSDIQVKLFVVPTDESQARIPYARVNHNKYMVTERASYIGTSNWSGSYFTETAGTSLLVTQNGHGGLRSQLEAVFLRDWESPYSHDLDTSANSVGNACRLL
- WT + ISRIB/WT Cohen's d (WT MEF EVs): 1.18
- RTV Corrective Direction (DYT-TOR1A MEF EVs; [1]): YES
- DYT + RTV/DYT Cohen's d (DYT-TOR1A MEF EVs; EV protein abundance): 0.61

B2: C1qtnf3 (protein, UniProt Q9BXJ4 23-246, looked up)
Complement C1q tumor necrosis …: QDEYMESPQTGGLPPDCSKCCHGDYSFRGYQGPPGPPGPPGIPGNHGNNGNNGATGHEGAKGEKGDKGDLGPRGERGQHGPKGEKGYPGIPPELQIAFMASLATHFSNQNSGIIFSSVETNIGNFFDVMTGRFGAPVSGVYFFTFSMMKHEDVEEVYVYLMHNGNTVFSMYSYEMKGKSDTSSNHAVLKLAKGDEVWLRMGNGALHGDHQRFSTFAGFLLFETK
- WT + ISRIB/WT Cohen's d (WT MEF EVs): −0.18
- RTV Corrective Direction (DYT-TOR1A MEF EVs; [1]): YES
- DYT + RTV/DYT Cohen's d (DYT-TOR1A MEF EVs; EV protein abundance): −3.24

B3: Rab6a (protein, UniProt P35279 2-208, looked up)
Ras-related protein Rab-6A: SAGGDFGNPLRKFKLVFLGEQSVGKTSLITRFMYDSFDNTYQATIGIDFLSKTMYLEDRTVRLQLWDTAGQERFRSLIPSYIRDSTVAVVVYDITNVNSFQQTTKWIDDVRTERGSDVIIMLVGNKTDLADKRQVSIEEGERKAKELNVMFIETSAKAGYNVKQLFRRVAAALPGMESTQDRSREDMIDIKLEKPQEQPVNEGGCSC
- WT + ISRIB/WT Cohen's d (WT MEF EVs): 0.44
- RTV Corrective Direction (DYT-TOR1A MEF EVs; [1]): YES
- DYT + RTV/DYT Cohen's d (DYT-TOR1A MEF EVs; EV protein abundance): 3.14

B4: Tra2b (protein, UniProt P62996 2-288, looked up)
Transformer-2 protein homolog …: SDSGEQNYGERESRSASRSGSAHGSGKSARHTPARSRSKEDSRRSRSKSRSRSESRSRSRRSSRRHYTRSRSRSRSHRRSRSRSYSRDYRRRHSHSHSPMSTRRRHVGNRANPDPNCCLGVFGLSLYTTERDLREVFSKYGPIADVSIVYDQQSRRSRGFAFVYFENVDDAKEAKERANGMELDGRRIRVDFSITKRPHTPTPGIYMGRPTYGSSRRRDYYDRGYDRGYDDRDYYSRSYRGGGGGGGGWRAAQDRDQIYRRRSPSPYYSRGGYRSRSRSRSYSPRRY
- WT + ISRIB/WT Cohen's d (WT MEF EVs): 0.54
- RTV Corrective Direction (DYT-TOR1A MEF EVs; [1]): YES
- DYT + RTV/DYT Cohen's d (DYT-TOR1A MEF EVs; EV protein abundance): 3.28

B5: Pura (protein, UniProt P42669 2-321, looked up)
Transcriptional activator …: ADRDSGSEQGGAALGSGGSLGHPGSGSGSGGGGGGGGGGGGSGGGGGAPGGLQHETQELASKRVDIQNKRFYLDVKQNAKGRFLKIAEVGAGGNKSRLTLSMSVAVEFRDYLGDFIEHYAQLGPSQPPDLAQAQDEPRRALKSEFLVRENRKYYMDLKENQRGRFLRIRQTVNRGPGLGSTQGQTIALPAQGLIEFRDALAKLIDDYGVEEEPAELPEGTSLTVDNKRFFFDVGSNKYGVFMRVSEVKPTYRNSITVPYKVWAKFGHTFCKYSEEMKKIQEKQREKRAACEQLHQQQQQQQEETTAATLLLQGEEEGEED
- WT + ISRIB/WT Cohen's d (WT MEF EVs): 0.52
- RTV Corrective Direction (DYT-TOR1A MEF EVs): YES
- DYT + RTV/DYT Cohen's d (DYT-TOR1A MEF EVs; EV protein abundance): 2.36
